According to patent publication US20110250130A1 (AbbVie / Abbott, published 2011):

Experiments:
[1] = biological target: T1, Recombinant Human TNF-α/TNFSF1A (human, UniProt P01375 77-233); experiment: SPR (Biacore), antibody captured, TNF-α in solution
T1 construct: Bought reagent (R&D Systems 210-TA); also called hTNF-α; huTNF-α
Method: The BIACORE assay (Biacore, Inc. Piscataway, N.J.) determines the affinity of antibodies with kinetic measurements of on-rate and off-rate constants. Binding of antibodies to a target antigen (for example, a purified recombinant target antigen) is determined by surface plasmon resonance-based measurements with a Biacore® 1000 or 3000 instrument (Biacore® AB, Uppsala, Sweden) using running HBS-EP (10 mM HEPES [pH 7.4], 150 mM NaCl, 3 mM EDTA, and 0.005% surfactant P20) at 25° C. All chemicals are obtained from Biacore® AB (Uppsala, Sweden) or otherwise from a different source as described in the text. For example, approximately 5000 RU of goat anti-mouse IgG, (Fcγ), fragment specific polyclonal antibody (Pierce Biotechnology Inc, Rockford, Ill., US) diluted in 10 mM sodium acetate (pH 4.5) is directly immobilized across a CM5 research grade biosensor chip using a standard amine coupling kit according to manufacturer's instructions and procedures at 25 μg/ml. Unreacted moieties on the biosensor surface are blocked with ethanolamine. Modified carboxymethyl dextran surface in flowcell 2 and 4 is used as a reaction surface. Unmodified carboxymethyl dextran without goat anti-mouse IgG in flow cell 1 and 3 is used as the reference surface. For kinetic analysis, rate equations derived from the 1:1 Langmuir binding model are fitted simultaneously to association and dissociation phases of all eight injections (using global fit analysis) with the use of Biaevaluation 4.0.1 software. Purified antibodies are diluted in HEPES-buffered saline for capture across goat anti-mouse IgG specific reaction surfaces. Antibodies to be captured as a ligand (25 μg/ml) are injected over reaction matrices at a flow rate of 5 μl/minute. The association and dissociation rate constants, kₒₙ (M⁻¹s⁻¹) and koff (s⁻¹), are determined under a continuous flow rate of 25 μl/minute. Rate constants are derived by making kinetic binding measurements at different antigen concentrations ranging from 10-200 nM. The equilibrium dissociation constant (M) of the reaction between antibodies and the target antigen is then calculated from the kinetic rate constants by the following formula: KD=koff/kₒₙ. Binding is recorded as a function of time and kinetic rate constants are calculated. In this assay, on-rates as fast as 10⁶ M⁻¹s⁻¹ and off-rates as slow as 10⁻⁶ s⁻¹ can be measured.

[2] = biological target: T1, Recombinant Human TNF-α/TNFSF1A; experiment: cell-based or functional assay

T1 sequence (P01375 77-233 limits assumed): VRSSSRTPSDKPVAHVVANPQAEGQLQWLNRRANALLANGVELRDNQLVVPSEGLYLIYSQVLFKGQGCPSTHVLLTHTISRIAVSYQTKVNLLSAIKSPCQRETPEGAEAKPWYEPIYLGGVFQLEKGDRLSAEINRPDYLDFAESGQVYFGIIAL

Binder | Kd [1] | koff [1] | kon [1] | TNF-α neutralization assay IC50 (nM), L929 cells [2]
AB248 (antibody, V domains shown, also called hMAK195VH.1b / hMAK195VL.1) VH: EVQLQESGPGLVKPSETLSLTCTVSGFSLSDYGVNWIRQPPGKGLEWIGMIWGDGSTDYDSTLKSRVTISKDTSKNQFSLKLSSVTAADTAVYYCAREWHHGPVAYWGQGTLVTVSS VL: DIQMTQSPSSLSASVGDRVTITCKASQAVSSAVAWYQQKPGKAPKLLIYWASTRHTGVPSRFSGSGSGTDFTLTISSLQPEDFATYYCQQHYSTPFTFGQGTKLEIK | 0.174 nM | 0.000316 s⁻¹ | 1.82e+06 M⁻¹ s⁻¹ | 0.213 nM
AB250 (antibody, V domains shown, also called hMAK195VH.1b / hMAK195VL.2) VH: EVQLQESGPGLVKPSETLSLTCTVSGFSLSDYGVNWIRQPPGKGLEWIGMIWGDGSTDYDSTLKSRVTISKDTSKNQFSLKLSSVTAADTAVYYCAREWHHGPVAYWGQGTLVTVSS VL: EIVMTQSPATLSLSPGERATLSCKASQAVSSAVAWYQQKPGQAPRLLIYWASTRHTGIPARFSGSGSGTDFTLTISSLQPEDFAVYYCQQHYSTPFTFGQGTKLEIK | 0.179 nM | 0.000356 s⁻¹ | 2e+06 M⁻¹ s⁻¹ | 0.301 nM
AB260 (antibody, V domains shown, also called hMAK195VH.2b / hMAK195VL.1) VH: EVQLVESGGGLVQPGGSLRLSCAASGFTLSDYGVNWVRQAPGKGLEWVSMIWGDGSTDYDSTLKSRFTISKDNSKNTLYLQMNSLRAEDTAVYYCAREWHHGPVAYWGQGTLVTVSS VL: DIQMTQSPSSLSASVGDRVTITCKASQAVSSAVAWYQQKPGKAPKLLIYWASTRHTGVPSRFSGSGSGTDFTLTISSLQPEDFATYYCQQHYSTPFTFGQGTKLEIK | 0.101 nM | 0.00023 s⁻¹ | 2.27e+06 M⁻¹ s⁻¹ | 0.093 nM
AB240 (antibody, V domains shown, also called hMAK195VH.1 / hMAK195VL.1) VH: EVQLQESGPGLVKPSETLSLTCTVSGGSISDYGVNWIRQPPGKGLEWIGMIWGDGSTDYDSTLKSRVTISVDTSKNQFSLKLSSVTAADTAVYYCAREWHHGPVAYWGQGTLVTVSS VL: DIQMTQSPSSLSASVGDRVTITCKASQAVSSAVAWYQQKPGKAPKLLIYWASTRHTGVPSRFSGSGSGTDFTLTISSLQPEDFATYYCQQHYSTPFTFGQGTKLEIK | 1.4 nM | 0.00228 s⁻¹ | 1.64e+06 M⁻¹ s⁻¹ | 14.2 nM
AB241 (antibody, V domains shown, also called hMAK195VH.1 / hMAK195VL.1a) VH: EVQLQESGPGLVKPSETLSLTCTVSGGSISDYGVNWIRQPPGKGLEWIGMIWGDGSTDYDSTLKSRVTISVDTSKNQFSLKLSSVTAADTAVYYCAREWHHGPVAYWGQGTLVTVSS VL: DIQMTQSPSSLSASVGDRVTITCKASQAVSSAVAWYQQKPGKSPKLLIYWASTRHTGVPSRFSGSGSGTDFTLTISSLQPEDFATYYCQQHYSTPFTFGQGTKLEIK | 0.573 nM | 0.0013 s⁻¹ | 2.27e+06 M⁻¹ s⁻¹ | 5.33 nM
AB242 (antibody, V domains shown, also called hMAK195VH.1 / hMAK195VL.2) VH: EVQLQESGPGLVKPSETLSLTCTVSGGSISDYGVNWIRQPPGKGLEWIGMIWGDGSTDYDSTLKSRVTISVDTSKNQFSLKLSSVTAADTAVYYCAREWHHGPVAYWGQGTLVTVSS VL: EIVMTQSPATLSLSPGERATLSCKASQAVSSAVAWYQQKPGQAPRLLIYWASTRHTGIPARFSGSGSGTDFTLTISSLQPEDFAVYYCQQHYSTPFTFGQGTKLEIK | 0.796 nM | 0.00142 s⁻¹ | 1.79e+06 M⁻¹ s⁻¹ | 25.1 nM

The next lines start with the values.

Kd [1] | koff [1] | kon [1] | TNF-α neutralization assay IC50 (nM), L929 cells [2] | Binder
0.0994 nM | 0.00033 s⁻¹ | 3.32e+06 M⁻¹ s⁻¹ | 0.072 nM | AB245 (antibody, V domains shown, also called hMAK195VH.1a / hMAK195VL.1a) VH: EVQLQESGPGLVKPSETLSLTCTVSGFSLSDYGVNWVRQPPGKGLEWLGMIWGDGSTDYDSTLKSRLTISKDNSKSQISLKLSSVTAADTAVYYCAREWHHGPVAYWGQGTLVTVSS VL: DIQMTQSPSSLSASVGDRVTITCKASQAVSSAVAWYQQKPGKSPKLLIYWASTRHTGVPSRFSGSGSGTDFTLTISSLQPEDFATYYCQQHYSTPFTFGQGTKLEIK
0.0891 nM | 0.000335 s⁻¹ | 3.8e+06 M⁻¹ s⁻¹ | 0.155 nM | AB244 (antibody, V domains shown, also called hMAK195VH.1a / hMAK195VL.1) VH: EVQLQESGPGLVKPSETLSLTCTVSGFSLSDYGVNWVRQPPGKGLEWLGMIWGDGSTDYDSTLKSRLTISKDNSKSQISLKLSSVTAADTAVYYCAREWHHGPVAYWGQGTLVTVSS VL: DIQMTQSPSSLSASVGDRVTITCKASQAVSSAVAWYQQKPGKAPKLLIYWASTRHTGVPSRFSGSGSGTDFTLTISSLQPEDFATYYCQQHYSTPFTFGQGTKLEIK
0.0996 nM | 0.00026 s⁻¹ | 2.62e+06 M⁻¹ s⁻¹ | 0.186 nM | AB247 (antibody, V domains shown, also called hMAK195VH.1a / hMAK195VL.2a) VH: EVQLQESGPGLVKPSETLSLTCTVSGFSLSDYGVNWVRQPPGKGLEWLGMIWGDGSTDYDSTLKSRLTISKDNSKSQISLKLSSVTAADTAVYYCAREWHHGPVAYWGQGTLVTVSS VL: EIVMTQSPATLSLSPGERATLSCKASQAVSSAVAWYQQKPGQSPRLLIYWASTRHTGVPARFSGSGSGTDFTLTISSLQPEDFAVYYCQQHYSTPFTFGQGTKLEIK
0.156 nM | 0.000315 s⁻¹ | 2.04e+06 M⁻¹ s⁻¹ | 0.245 nM | AB249 (antibody, V domains shown, also called A3249; hMAK195VH.1b / hMAK195VL.1a) VH: EVQLQESGPGLVKPSETLSLTCTVSGFSLSDYGVNWIRQPPGKGLEWIGMIWGDGSTDYDSTLKSRVTISKDTSKNQFSLKLSSVTAADTAVYYCAREWHHGPVAYWGQGTLVTVSS VL: DIQMTQSPSSLSASVGDRVTITCKASQAVSSAVAWYQQKPGKSPKLLIYWASTRHTGVPSRFSGSGSGTDFTLTISSLQPEDFATYYCQQHYSTPFTFGQGTKLEIK
1.62 nM | 0.0027 s⁻¹ | 1.72e+06 M⁻¹ s⁻¹ | 50.7 nM | AB243 (antibody, V domains shown, also called hMAK195VH.1 / hMAK195VL.2a) VH: EVQLQESGPGLVKPSETLSLTCTVSGGSISDYGVNWIRQPPGKGLEWIGMIWGDGSTDYDSTLKSRVTISVDTSKNQFSLKLSSVTAADTAVYYCAREWHHGPVAYWGQGTLVTVSS VL: EIVMTQSPATLSLSPGERATLSCKASQAVSSAVAWYQQKPGQSPRLLIYWASTRHTGVPARFSGSGSGTDFTLTISSLQPEDFAVYYCQQHYSTPFTFGQGTKLEIK
0.25 nM | 0.000425 s⁻¹ | 1.71e+06 M⁻¹ s⁻¹ | 0.35 nM | AB251 (antibody, V domains shown, also called hMAK195VH.1b / hMAK195VL.2a) VH: EVQLQESGPGLVKPSETLSLTCTVSGFSLSDYGVNWIRQPPGKGLEWIGMIWGDGSTDYDSTLKSRVTISKDTSKNQFSLKLSSVTAADTAVYYCAREWHHGPVAYWGQGTLVTVSS VL: EIVMTQSPATLSLSPGERATLSCKASQAVSSAVAWYQQKPGQSPRLLIYWASTRHTGVPARFSGSGSGTDFTLTISSLQPEDFAVYYCQQHYSTPFTFGQGTKLEIK
0.0733 nM | 0.000221 s⁻¹ | 3.02e+06 M⁻¹ s⁻¹ | 0.279 nM | AB253 (antibody, V domains shown, also called hMAK195VH.2 / hMAK195VL.1a) VH: EVQLVESGGGLVQPGGSLRLSCAASGFTFSDYGVNWVRQAPGKGLEWVSMIWGDGSTDYDSTLKSRFTISRDNSKNTLYLQMNSLRAEDTAVYYCAREWHHGPVAYWGQGTLVTVSS VL: DIQMTQSPSSLSASVGDRVTITCKASQAVSSAVAWYQQKPGKSPKLLIYWASTRHTGVPSRFSGSGSGTDFTLTISSLQPEDFATYYCQQHYSTPFTFGQGTKLEIK
0.0866 nM | 0.000252 s⁻¹ | 2.92e+06 M⁻¹ s⁻¹ | 0.222 nM | AB252 (antibody, V domains shown, also called hMAK195VH.2 / hMAK195VL.1) VH: EVQLVESGGGLVQPGGSLRLSCAASGFTFSDYGVNWVRQAPGKGLEWVSMIWGDGSTDYDSTLKSRFTISRDNSKNTLYLQMNSLRAEDTAVYYCAREWHHGPVAYWGQGTLVTVSS VL: DIQMTQSPSSLSASVGDRVTITCKASQAVSSAVAWYQQKPGKAPKLLIYWASTRHTGVPSRFSGSGSGTDFTLTISSLQPEDFATYYCQQHYSTPFTFGQGTKLEIK
0.0458 nM | 0.000119 s⁻¹ | 2.61e+06 M⁻¹ s⁻¹ | 0.099 nM | AB246 (antibody, V domains shown, also called hMAK195VH.1a / hMAK195VL.2) VH: EVQLQESGPGLVKPSETLSLTCTVSGFSLSDYGVNWVRQPPGKGLEWLGMIWGDGSTDYDSTLKSRLTISKDNSKSQISLKLSSVTAADTAVYYCAREWHHGPVAYWGQGTLVTVSS VL: EIVMTQSPATLSLSPGERATLSCKASQAVSSAVAWYQQKPGQAPRLLIYWASTRHTGIPARFSGSGSGTDFTLTISSLQPEDFAVYYCQQHYSTPFTFGQGTKLEIK
